Results taken from PMC3590139, “Isocitrate Dehydrogenase from Streptococcus mutans: Biochemical Properties and Evaluation of a Putative Phosphorylation Site at Ser102” (PLoS ONE, 2013).

B1: SmIDH (Streptococcus mutans UA159) (protein)
chain: MAEKVSFEEGKLQVPDKPVIPYIEGDGVGQDIWKNAQIVFDKAIAKVYGGHKQVIWREVLAGKKAYNETGNWLPNETLEIIKTHLLAIKGPLETPVGGGIRSLNVALRQELDLFACVRPVRYFKGVPSPLKHPEKTAITIFRENTEDIYAGIEWNAGTAEVQKVINFLQDDMQVKKIRFPKSSSIGIKPISIEGSQRLIRAAIEYALANNLTKVTLVHKGNIQKFTEGGFRKWGYELAKREYAAELASGQLVVDDIIADNFLQQILLKPERFDVVALTNLNGDYASDALAAQVGGIGISPGANINYQTGHAIFEATHGTAPDIAGQDLANPSSVLLSGCMLFDYIGWSKVSDLIMKAVEKAIANGQVTIDFAKELGVEALTTRQFSEVLLTYL
B2: NAD+-dependent isocitrate dehydrogenase of Streptococcus mutans (enzyme, UniProt Q59940 1-393, looked up)
chain: B1 chain
notes: 399 residues per subunit with the tag; The C-terminal position of the His6 tag is read from the reverse primer R-Sm^icd (CTA + six GTG codons on the antisense strand); also called SmIDH; S. mutans IDH; not shown: His6, C-terminal, kept

Assays:
purified protein [1] = substrate: NC(=O)c1ccc[n+]([C@@H]2O[C@H](COP(=O)(O)OP(=O)(O)OC[C@H]3O[C@@H](n4cnc5c(N)ncnc54)[C@H](O)[C@@H]3O)[C@@H](O)[C@H]2O)c1; assay: purified protein; conditions: saturating DL-isocitrate, 35 mM Tris-HCl pH 7.5, […] MnCl2, 37 °C
purified protein [2] = substrate: O=C(O)CC(C(=O)O)C(O)C(=O)O; assay: purified protein; conditions: saturating NAD+, 35 mM Tris-HCl pH 7.5, […] MnCl2, 37 °C
[3] = biological target: the molecule itself; assay: SEC; HiLoad 10/300 Superdex 200, 0.05 M potassium phosphate pH 7.0, 0.15 M NaCl, 0.01% NaN3, flow 0.5 ml/min; calibrated with ovalbumin, conalbumin, aldolase, ferritin, thyroglobulin; native mass estimated as 70 kDa against a 43 kDa subunit

Row | Protein | Km (purified protein [1]) [µM] | kcat (purified protein [1]) [s⁻¹] | kcat/Km (purified protein [1]) [M⁻¹ s⁻¹] | Km (purified protein [2]) [µM] | kcat (purified protein [2]) [s⁻¹] | kcat/Km (purified protein [2]) [M⁻¹ s⁻¹] | stoichiometry N [3]
1 | B1 | 154 | 56 | 360000 | 75 | 124 | 1.65e+06 | 
2 | B2 |  |  |  |  |  |  | 2
